Measured values published in patent publication US20230416394A1 (ELPISCIENCE SUZHOU BIOPHARMA, published 2023).
Positions count from the first letter of the chain named. Several values for one entry are separate records, joined by “and”; a condition that tells them apart may be missing. Equal entries are not always repeated.

T1: human CD39 (human, UniProt P49961 1-510)
T1 sequence: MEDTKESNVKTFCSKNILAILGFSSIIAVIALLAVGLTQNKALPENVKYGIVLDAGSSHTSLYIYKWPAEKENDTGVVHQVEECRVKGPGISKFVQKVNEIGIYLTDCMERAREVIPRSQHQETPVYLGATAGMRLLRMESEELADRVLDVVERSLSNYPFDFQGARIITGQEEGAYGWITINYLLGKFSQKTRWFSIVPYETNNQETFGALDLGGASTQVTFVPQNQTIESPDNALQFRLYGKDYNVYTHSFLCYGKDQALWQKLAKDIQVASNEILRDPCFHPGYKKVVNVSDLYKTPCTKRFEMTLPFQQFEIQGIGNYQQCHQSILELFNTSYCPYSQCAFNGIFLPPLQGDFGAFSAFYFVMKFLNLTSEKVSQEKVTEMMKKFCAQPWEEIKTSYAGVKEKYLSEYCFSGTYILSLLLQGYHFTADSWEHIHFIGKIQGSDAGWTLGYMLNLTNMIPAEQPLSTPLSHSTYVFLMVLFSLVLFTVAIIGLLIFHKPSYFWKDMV

T2: mouse CD39 (mouse, UniProt P55772 1-510)
T2 construct: whole, on cells; also called mCD39; CHOK1-mCD39
T2 sequence (looked up): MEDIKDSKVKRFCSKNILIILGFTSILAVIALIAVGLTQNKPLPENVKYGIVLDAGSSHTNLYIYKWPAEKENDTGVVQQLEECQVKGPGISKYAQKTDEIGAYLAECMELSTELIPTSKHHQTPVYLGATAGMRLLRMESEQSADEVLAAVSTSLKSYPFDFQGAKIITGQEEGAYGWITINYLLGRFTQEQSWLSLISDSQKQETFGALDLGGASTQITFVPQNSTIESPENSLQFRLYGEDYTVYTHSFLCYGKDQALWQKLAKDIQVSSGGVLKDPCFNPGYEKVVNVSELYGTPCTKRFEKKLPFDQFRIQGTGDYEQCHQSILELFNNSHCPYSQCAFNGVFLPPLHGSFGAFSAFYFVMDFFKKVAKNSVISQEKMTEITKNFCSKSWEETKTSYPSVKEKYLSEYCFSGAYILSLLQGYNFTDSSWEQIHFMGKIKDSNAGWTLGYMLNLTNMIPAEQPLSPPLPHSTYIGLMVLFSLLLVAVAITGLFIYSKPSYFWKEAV

B1: c23 (antibody, V domains shown)
VH: EVQLQQSGAELLRPGASVKLSCTASGYNLKDTFLHWVKQRPEQGLEWIGRIDPANGNIKYDPKFQGKATLTADTSSNTAYLQLISLTSEDTAVYYCANSPYYYGSGYRIFDVWGAGTTVTVSS
VL: QIVLTQSPAIMSASPGEKVTITCSAFSSVNYMHWYQQKPGTSPKLLIYTTSNLASGVPTRFSGSGSGTSYSLTISRMEAEDAATYYCQQRSTYPFTFGSGTKLEIQ
B2: hu23.201 (antibody, V domains shown)
VH: QVQLVQSGAEVKKPGASVKVSCKASGYTLKDTFLHWVRQAPGQRLEWMGRIDPANGNIKYDPKFQGRVTLTADTSSNTAYMELSSLRSEDTAVYYCANSPYYYGSGYRIFDVWGQGTLVTVSS
VL: EIVLTQSPATLSLSPGERATLSCSAFSSVNYMHWYQQKPGQSPRLLIYTTSNLASGIPARFSGSGSGTDYTLTISSLEPEDFAVYYCQQRSTYPFTFGQGTKLEIK
B3: hu23.H7L6 (antibody, V domains shown)
VH: EVQLVQSGAEVKKPGASVKLSCKASGYNLKDTFLHWVKQAPGQGLEWIGRIDPANGNIKYDPKFQGKATLTADTSANTAYLELISLRSEDTAVYYCANSPYYYGSGYRIFDVWGQGTTVTVSS
VL: B2 VL with E1Q, L13A, S42A, R44K, I57V, A59T, D69S, L77M
B4: hu23.H1L4 (antibody, V domains shown)
VH: B2 VH with T28N, L70I, A72R, S76A, N77S, N98R, L118T
VL: B2 VL with L13A, A19V, L21I, S42A, L77M
B5: hu23.H2L2 (antibody, V domains shown)
VH: B2 VH with T28N, R44G, L70I, S76A, N77S, L118T
VL: B2 VL with S42A
B6: hu23.H1L2 (antibody, V domains shown)
VH: B2 VH with T28N, L70I, A72R, S76A, N77S, N98R, L118T
VL: B2 VL with S42A
B7: hu23.H5L6 (antibody, V domains shown)
VH: B2 VH with T28N, R44G, L70I, S76A, S84I, L118T
VL: B2 VL with E1Q, L13A, S42A, R44K, I57V, A59T, D69S, L77M
B8: hu23.H5L5 (antibody, V domains shown)
VH: B2 VH with T28N, R44G, L70I, S76A, S84I, L118T
VL: B2 VL with E1Q, S42A, A59T, D69S
B9: hu23.H4L4 (antibody, V domains shown)
VH: B3 VH with E1Q, K67R, N77S, I84S
VL: B2 VL with L13A, A19V, L21I, S42A, L77M
B10: hu23.H7L5 (antibody, V domains shown)
VH: B3 VH
VL: B2 VL with E1Q, S42A, A59T, D69S
B11: hu23.203 (antibody, V domains shown)
VH: B2 VH
VL: B2 VL with S12T, S42A
B12: hu23.211 (antibody, V domains shown)
VH: B2 VH with Q1E, L70I
VL: B2 VL with S42A
B13: hu23.H7L1 (antibody, V domains shown)
VH: B3 VH
VL: B2 VL with S42A, Y70F
B14: T895 (antibody, V domains shown)
VH: EVQLQQSGPELVKPGASVKMSCKASGYTFTDYNMHWVKQSHGRTLEWIGYIVPLNGGSTFNQKFKGRATLTVNTSSRTAYMELRSLTSEDSAAYYCARGGTRFAYWGQGTLVTVSA
VL: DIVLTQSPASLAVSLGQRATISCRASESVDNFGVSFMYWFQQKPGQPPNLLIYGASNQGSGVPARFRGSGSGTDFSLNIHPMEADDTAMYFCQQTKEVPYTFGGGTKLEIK
B15: mAb35 (antibody, V domains shown)
VH: EVRLQQSGAELVKPGASVKLSCTASGFNIEDTYVHWMKQRPEQGLEWIGRIDPAIDNSKYDPKFQGKATITAVSSSNTAYLQLSSLTSEDTAVYYCALYDGYNVYAMDYWGQGTSVTVSS
VL: DIVMTQAAFSNPVTLGTSASISCRSSKNLLHSNGITYLYWYLQRPGQSPQLLIYRASTLASGVPNRFSGSESGTDFTLRISRVEAEDVGVYYCAQLLELPHTFGGGTKLEIK
notes: mouse hybridoma antibody
B16: mAb19 (antibody, V domains shown)
VH: EVKLEKSGGGLVQPGGSMKLSCVASGFTFSNYWMNWVRQSPEKGLEWVAQIRLNPDNYATHYAESVKGRFTISRDDYKNSVYLQMSSLRAEDSGIYYCTQHGSRGFAYWGQGTLVTVS
VL: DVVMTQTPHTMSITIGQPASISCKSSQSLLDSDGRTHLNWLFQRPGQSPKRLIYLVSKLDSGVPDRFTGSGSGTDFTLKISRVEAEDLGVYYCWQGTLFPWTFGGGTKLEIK
notes: mouse hybridoma antibody
B17: mAb14 (antibody, V domains shown)
VH: EVKLEESGGGLVQPGGSMKLSCVASGFTFSKYWMNWVRQSPEKGLEWVAEIRLKSNKYGTHYAESVKGRFTISRDDSKNNVYLQMNNLRPEDTGIYYCTTQLDLYWFFDVWGAGTTVTVSS
VL: DIVMTQSPAILSVTPGDRVSLSCRASQSISDYLHWYQQKSHESPRLLIKYASQSISGIPSRFSGSGSGSNFTLSINSVEPEDVGVYFCQNGHSLPLTFGAGTKLELR
notes: mouse hybridoma antibody
B18: mAb23 (antibody, V domains shown)
VH: B1 VH
VL: B1 VL
notes: mouse hybridoma antibody
B19: mAb34 (antibody, V domains shown)
VH: EIQVQQSGPELVKPGASVKVSCKASGYSFTDYNMYWVKQSHGKSLEWIGFIDPYNGYTSYNQKFKGKATLTIDKSSSTAFMHLNSLTSEDSAVYYCAIYGYDDAYYFDYWGQGTTLTVSS
VL: B1 VL with F26T, N30S, Y35F, Q36R, L46W, T49S, T59A, E78A, S91I, Q106T
notes: mouse hybridoma antibody
B20: mAb13 (antibody, V domains shown)
VH: QIQLVQSGPELKKPGETVKISCKASGYTFTNYGMNWVKQAPGKGLRWMGLINTYTGEPTYADDFKDRFAFSLETSASTAFLQINNLKDEDMATYFCARKGIYYDYVWFFDVWGAGTTVTVSS
VL: DIQMTQSPSSLSTSLGGKVSITCKASQDINRYIAWYQHKPGKGPRLLIHYTSTLLPGIPSRFSGSGSGRDYSFSISNLEPEDIATYFCLQYSNLLTFGGGTKLEIK
notes: mouse hybridoma antibody
B21: mAb21 (antibody, V domains shown)
VH: EVKLEKSGGGLVQPGGSMKLSCVASGFTFSNYWMNWVRQSPEKGLEWVAQIRLNPDNYATHFAESVKGRFTISRDDSKNSVYLQMNSLRAEDTGIYYCTEHGTRGFAYWGQGTLVTVSE
VL: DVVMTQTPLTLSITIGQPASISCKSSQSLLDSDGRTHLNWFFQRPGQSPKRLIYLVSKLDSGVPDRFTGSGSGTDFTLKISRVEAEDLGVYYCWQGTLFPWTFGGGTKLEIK
notes: mouse hybridoma antibody

These binders were tested against T1, human CD39 (assay: cell-based or functional assay).

Binder	ATPase inhibition on SK-MEL-28 cells, IC50
B1	0.158 nM and 0.209 nM
B2	0.264 nM
B3	0.121 nM
B4	0.59 nM
B5	0.767 nM
B6	0.964 nM
B7	0.13 nM
B8	0.122 nM
B9	0.487 nM
B10	0.144 nM
B11	0.32 nM
B12	0.386 nM
B13	0.147 nM

Target: T1, human CD39
Assay: cell-based or functional assay
Remark: another data set of the same source

Binder	ATPase activity inhibition (IC50), MOLP-8 cells [nM]	ATPase activity inhibition (IC50), SK-MEL-5 cells [nM]
B14	0.51	0.09
B8	0.33	0.07

What follows are binders tested against T2, mouse CD39 (assay: FACS, CHOK1-mCD39 cells).
Excerpt: FACS were used to determine binding of the antibodies to cell lines expressing CD39 naturally (SK-MEL-28) or recombinantly (CHOK1-hCD39, CHOK1-cynoCD39, and CHOK1-mCD39), or with cells lacking CD39 expression (CHOK1-blank) as a negative control.
CHOK1-hCD39, CHOK1-cCD39, CHOK1-mCD39 and CHOK1-blank cells were maintained in culture medium according to ATCC procedure. Cells were collected and re-suspended in blocking buffer at a density of 3×10⁶ cells/ml. […] The plates were washed with FACS buffer, and cells were re-suspended in 100 μL/well of PBS. Cells were then analyzed with FACSVerse™ and mean fluorescence intensity were determined. Full binding curves were generated on the CD39 expressing cells by testing a range of antibody concentrations. Apparent affinity was determined for each antibody using Prism software.

Binder	binding result
B15	no binding (tested: 30 µg/ml)
B16	no binding (tested: 30 µg/ml)
B17	no binding (tested: 30 µg/ml)
B18	no binding (tested: 30 µg/ml)
B19	no binding (tested: 30 µg/ml)
B20	no binding (tested: 30 µg/ml)
B21	no binding (tested: 30 µg/ml)
